What was measured:
Format in all cases: cell-based, mouse
EBs = assay: Hematopoietic progenitor potential of activin-induced EBs; conditions: day 7 activin-induced EBs, no serum
Procedure: FIGS. 24A and 24B show the hematopoietic progenitor content of EBs differentiated in the presence of different concentrations of activin. A) Progenitor potential of day 7 EBs, Ep are primitive erythroid progenitors, mac/mix represent definitive hematopoietic progenitors. B) Progenitor potential of day 7 activin-induced EBs following 2.5 days of exposure to serum.
For the generation of blast cell colonies (BL-CFC assay), EB-derived cells were plated at 0.5×-1.5×10^5 cells/ml in 1% methylcellulose supplemented with 10% FCS (Hyclone), vascular endothelial growth factor (VEGF; 5 ng/ml), c-kit ligand (KL; 1% conditioned medium), IL-6 (5 ng/ml) and 25% D4T endothelial cell conditioned medium (Kennedy et al. (1997) Nature 386:488-93). Transitional colonies were generated in the absence of VEGF. Colonies were scored following four days of culture. […] Primitive erythroid colonies were scored at day 5-6 of culture, whereas definitive erythroid (BFU-E), macrophage, and multilineage colonies were counted at 7-10 days of culture. […]
To further evaluate the hematopoietic potential of these EBs, they were analyzed for progenitor potential.

[1] = test system: GFP^+ hCD4^med cells from CD4-HNF/GFP-T ES cells; assay: Reaggregation of sorted GFP^+ hCD4^med cells in serum free media with DKK1 and/or activin
Procedure: FIGS. 35A and 35B depict, the effects of DKK1 and activin on EB differentiation. EBs differentiated and sorted as in FIG. 32 for GFP^+ hCD4^med were allowed to reaggregate in serum replacement containing media alone or with the addition of human DKK1 100 ng/ml, activin 100 ng/ml, or both factors together. […] FIG. 35B depicts endodermal gene expression by RT PCR. The sorted populations were treated as indicated above for 2 days, then plated on matrigel in serum free media without factors added. Gene expression was analyzed an additional 5 days after plating.
Nodal, a key molecule involved in mesoderm/endoderm induction in vivo, signals through the same receptors as activin. It is also known that Nodal as well as inhibitors for Wnt signaling are expressed preferentially in or around the anterior primitive streak. Considering that the endoderm forms from the anterior primitive streak, it is possible that nodal/activin signaling in combination with inhibition of Wnt signals induces endoderm formation. To test this hypothesis, CD4-HNF/GFP-T ES cells were differentiated for 3.25 days in serum and GFP^+ hCD4^med cells were sorted and reaggregated in serum free media with no factor, DKK1 (Wnt inhibitor), activin, or activin and DKK1. The effect of these culture conditions on hCD4-HNF3β and GFP-Bry levels were analyzed by flow cytometry (FIG. 35A). With serum free media alone, hCD4 expression was lost after 1 day reaggregation. […] To further test this idea, sorted cells reaggregated for two days in the culture conditions above were washed with serum free media without factors and plated onto martrigel in serum free media. After 5 days, the cultures were harvested and gene expression determined by RT PCR. […] These culture conditions have the potential to allow the large scale production of endodermal derived tissues such as the pancreas and liver.

CD4-HNF/GFP-T ES cells = assay: Activin A / Wnt3a induction of ES derived primitive streak like cells in serum free culture, with pathway inhibitors; conditions: serum free
Procedure: FIGS. 34A, 34B and 34C depict ES cells differentiated in serum free conditions with Activin A Wnt3a and/or inhibitors of these pathways. ES cells were cultured in serum free media for two days then trypsinized to obtain a single cell population. These cells were then reaggregated with the indicated conditions. At day six, the EBs were plated on matrigel coated dishes in serum free media.
Liu et. al. (1999) Nat. Genet. 22: 361-4. […] Activin stimulation leads to high levels of CD4 expression that persist after loss of GFP-Bry expression at day 6. […] Wnt does however stimulate expression of the posterior primitive streak markers HoxBI and Tbx6, while activin only induces Tbx6. […] At day 6, EBs that were stimulated with either activin or Wnt3a were plated on matrigel in serum free media to allow further development.
Considering that Wnt stimulation induces nodal and activin treatment induces Wnt3 (FIG. 34B), it is unknown whether activin/nodal signaling or Wnt Signaling alone can induce primitive streak formation or whether both factors are required together. CD4-HNF/GFP-T ES cells were induced with either activin or Wnt in conjunction with specific inhibitors of these pathways. DKK1 was used to inhibit Wnt signaling while the small molecule inhibitor SB-431542 (SB) was used to block Nodal/TGFβ signaling. DKK1 functions by binding the Wnt co-receptors, LRP5 and LRP6, which are essential for activation of the βcatenin signaling pathway. […] Inman et. al. (2002) MoI. Pharmacol. 62: 65-74. […] Therefore, to induce mesoderm and endoderm germ layers and their derivative tissues, both activin/Nodal and Wnt signals are required initially.

[2] = test system: EBs (HNF3β, Hex1 expression); assay: Antibody staining for HNF3β and Hex1 in activin-induced EBs
Procedure: To better estimate the proportion of endodermal progenitors in the activin-induced EBs, cells from cultures stimulated with 100 ng/ml activin were stained with antibodies against HNF3β and Hex1. EBs from un-induced cultures were used as controls (Activin-). A significant portion of the activin induced population (estimated at 50-60% of total) expressed both HNF3β and Hex1. None of the cells in the un-induced EBs expressed these proteins.
To quantify the differential response of activin, cells stimulated with different concentrations of activin were adhered to coverslips and stained with the anti-HNF3β antibody. More than 50% of the entire EB population stimulated with 100 ng/ml of activin expressed HNF3β whereas only 10% of the cells stimulated with 3 ng/ml were positive.

B1: activin: growth factor purchased from R&D systems; induces mesoderm and endoderm (protein, UniProt P08476 311-426, looked up)
Inhibin beta A chain: GLECDGKVNICCKKQFFVSFKDIGWNDWIIAPSGYHANYCEGECPSHIAGTSGSSLSFHSTVINHYRMRGHSPFANLKSCCVPTKLRPMSMLYYDDGQNIIKKDIQNMIVEECGCS
EBs
  primitive (Ep) or definitive (mac/mix) hematopoietic progenitors: no appreciable numbers
[1]; 2 days treatment, then 5 days on matrigel without factors
  endoderm gene expression by RT PCR (pancreas, liver, intestine genes): Very low levels of just two of the genes, Pdxl and ALB
[1]; after 1 day reaggregation, DKK1 100 ng/ml, activin 100 ng/ml
  hCD4 (HNF3β) level by flow cytometry: retention of HNF3β levels similar to newly sorted cells
CD4-HNF/GFP-T ES cells; day 6 EBs plated on matrigel a further 6 days
  endodermal gene expression (Alb, Aat, HNF4, Pdxl) by RT-PCR: allowed development of cells expressing the endodermal genes Alb, Aat, HNF4, and Pdxl
CD4-HNF/GFP-T ES cells; Activin A 25 ng/ml or Wnt3a 100 ng/ml
  induction of GFP^+ CD4^+ cells: initially induce GFP^+ CD4^+ cells
[2]; activin 3 ng/ml, anti-HNF3β antibody
  cells positive for HNF3β: 10%
[2]; activin 100 ng/ml, anti-HNF3β antibody
  entire EB population expressing HNF3β: More than 50%
[2]; activin 100 ng/ml, antibody staining, estimated
  portion of population expressing both HNF3β and Hex1: 50-60 % of total

From patent US10428308B2, “Mesoderm and definitive endoderm cell populations” (Icahn School of Medicine at Mount Sinai, priority 2005, dated 2019)
